Article PMC8232673, “Hybrid-Type SELEX for the Selection of Artificial Nucleic Acid Aptamers Exhibiting Cell Internalization Activity”

Experiments:
IgG1 Fc = IgG1 Fc (Homo sapiens (Human), UniProt P01857 104-328, glycosylated); assay: capillary electrophoresis; 20 mM Tris pH 7.4, 10 mM NaCl, 1 mM MgCl2, 0.05% Tween 20, 37 C; details: tags: His; chain copies: 2; label: 5'-FAM
[1] = molecular target: TROP2 FcHis (human TROP2 fused to IgG1 FcHis) (human, UniProt P09758 27-274+P01857:100-328, internal_change); assay: capillary electrophoresis; 10 nM DNA, 4-fold protein; 20 mM Tris-HCl pH 7.4, 10 mM NaCl, 1 mM MgCl2, 0.05% Tween 20; 10 nM aptamer, 37 °C 30 min, then held at 15 °C; CE running buffer 100 mM sodium borate pH 8.35; details: protein: commercial; IgG1 Fc-His fusion; chain copies: 2; label: 5' FAM
TROP2 FcHis (human TROP2 fused to IgG1 FcHis), sequence (P09758 other isoform, or with tags, fused parts or gaps): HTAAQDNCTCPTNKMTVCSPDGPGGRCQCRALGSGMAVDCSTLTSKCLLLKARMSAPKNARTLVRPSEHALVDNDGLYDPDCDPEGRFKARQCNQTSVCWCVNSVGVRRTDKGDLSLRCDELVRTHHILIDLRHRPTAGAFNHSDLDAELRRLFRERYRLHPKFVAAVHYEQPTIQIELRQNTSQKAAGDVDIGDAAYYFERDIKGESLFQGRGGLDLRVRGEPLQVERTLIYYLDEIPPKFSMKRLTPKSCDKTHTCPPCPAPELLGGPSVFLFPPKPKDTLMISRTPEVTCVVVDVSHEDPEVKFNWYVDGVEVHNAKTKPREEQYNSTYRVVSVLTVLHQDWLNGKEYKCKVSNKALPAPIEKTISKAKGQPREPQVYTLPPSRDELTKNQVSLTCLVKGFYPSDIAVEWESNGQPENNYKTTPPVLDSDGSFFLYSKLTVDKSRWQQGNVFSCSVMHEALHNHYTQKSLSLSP

[2] = molecular target: FcHis (human IgG1 Fc-His, counter-target for specificity) (human, UniProt P01857 100-328); assay: as above; details: protein: commercial; tags: His; chain copies: 2; label: 5' FAM

Binder	Kd (IgG1 Fc)	binding result [1]	binding result [2]
Tac-A5 (ssDNA, every T at positions 21-70 is 5-[(3-indolyl)propionamide-N-allyl]-dU (Utrp); T in 5' primer region (1-20) natural) DNA: TCGCCTTGCCGGATCGCAGATCTGTTCCGTGTTCGTTCCTTTCCTTGTTGTGGTCCGTGAGCCTGACACC	> 1 µM		
ssDNA_neg (ssDNA) DNA: TCGCCTTGCCGGATCGCAGACTTCCCCCCACTCCACTTCTTACTCCTTTCTGGTCCGTGAGCCTGACACC		no binding	no binding
